Drawing on patent US20220220200A1, this text covers MFI for 1 substance.

For assay [1], the target named is CD19 on the cell surface (native CD19 antigen) (human) (UniProt P15391). In words: flow cytometry, phage clone on Raji cells (CD19-positive).
For assay [2] the target is unchanged. Put plainly: flow cytometry, phage clone on JVM-2 cells (CD19-positive).
Assay [3] has the same target. Put plainly: flow cytometry, phage clone on K562-CD19 cells (CD19-positive).

Chain of CD19 on the cell surface (native CD19 antigen) (human) (P15391 20-556): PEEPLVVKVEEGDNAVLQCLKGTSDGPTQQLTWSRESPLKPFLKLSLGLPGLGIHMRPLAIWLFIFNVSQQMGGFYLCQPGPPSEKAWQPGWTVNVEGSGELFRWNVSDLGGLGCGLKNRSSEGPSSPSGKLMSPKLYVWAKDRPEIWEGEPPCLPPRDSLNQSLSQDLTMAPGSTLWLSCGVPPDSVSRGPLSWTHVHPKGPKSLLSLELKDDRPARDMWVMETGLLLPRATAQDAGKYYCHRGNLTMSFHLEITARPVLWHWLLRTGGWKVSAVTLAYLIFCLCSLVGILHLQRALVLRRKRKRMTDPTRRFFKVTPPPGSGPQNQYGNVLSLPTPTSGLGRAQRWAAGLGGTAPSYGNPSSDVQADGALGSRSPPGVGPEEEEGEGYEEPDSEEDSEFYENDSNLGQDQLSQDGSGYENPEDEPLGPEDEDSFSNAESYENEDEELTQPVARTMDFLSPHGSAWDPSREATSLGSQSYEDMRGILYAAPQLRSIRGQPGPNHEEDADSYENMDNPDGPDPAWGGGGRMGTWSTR

Consider “FMC-63 (humanized mouse anti-human CD19 phage antibody clone) (scFv)”, for which the MFI in assay [1] is 55.8; in assay [2], 22.4; in assay [3], 38.1.
